Laboratory results published in patent US20230365714A1 (published 2023).
Numbering of substitutions follows the chain as printed.

B1: IgG1-ROR2-A-HC3LC2-FEAR (antibody, V domains shown)
VH: EVQLLESGGGLVQPGGSLRLSCTVSGFSLSSYSMSWVRQAPGKGLEWIGVIYVNSKTWYANWAKGRFTISKTSTTVYLQMNSLRAEDTATYYCARGDAGYTTNSWLWGQGTLVTVSS
VL: AFELTQSPSSLSASVGDRVTITCQASESIDNYLSWYQQKPGKAPKLLIYQAFKLASGVPSRFRGSGSGTDFTLTISSLQSEDFATYYCQSYSGISTTAFGGGTEVVIK
notes: Humanized variant
B2: IgG1-ROR2-A-HC7LC2-FEAR (antibody, V domains shown)
VH: EVQLLESGGGLVQPGGSLRLSCAASGFSLSSYSMSWVRQAPGKGLEWIGVIYVNSKTWYADSVKGRFTISKDNSKNTVYLQMNSLRAEDTATYYCARGDAGYTTNSWLWGQGTLVTVSS
VL: B1 VL
notes: Humanized variant
B3: IgG1-ROR2-A-HC4LC2-FEAR (antibody, V domains shown)
VH: B2 VH with A23T, A24V, D61N, S62W, V63A
VL: B1 VL
notes: Humanized variant
B4: IgG1-ROR2-A-HC4LC4-FEAR (antibody)
heavy: EVQLLESGGGLVQPGGSLRLSCTVSGFSLSSYSMSWVRQAPGKGLEWIGVIYVNSKTWYANWAKGRFTISKDNSKNTVYLQMNSLRAEDTATYYCARGDAGYTTNSWLWGQGTLVTVSSASTKGPSVFPLAPSSKSTSGGTAALGCLVKDYFPEPVTVSWNSGALTSGVHTFPAVLQSSGLYSLSSVVTVPSSSLGTQTYICNVNHKPSNTKVDKRVEPKSCDKTHTCPPCPAPEFEGGPSVFLFPPKPKDTLMISRTPEVTCVVVAVSHEDPEVKFNWYVDGVEVHNAKTKPREEQYNSTYRVVSVLTVLHQDWLNGKEYKCKVSNKALPAPIEKTISKAKGQPREPQVYTLPPSREEMTKNQVSLTCLVKGFYPSDIAVEWESNGQPENNYKTTPPVLDSDGSFFLYSRLTVDKSRWQQGNVFSCSVMHEALHNHYTQKSLSLSPGK
VL: B1 VL with A1D, F2I, E3Q, S80P, E104K, V106E
notes: Humanized variant
B5: IgG1-ROR2-A-HC3LC4-FEAR (antibody)
heavy: EVQLLESGGGLVQPGGSLRLSCTVSGFSLSSYSMSWVRQAPGKGLEWIGVIYVNSKTWYANWAKGRFTISKTSTTVYLQMNSLRAEDTATYYCARGDAGYTTNSWLWGQGTLVTVSSASTKGPSVFPLAPSSKSTSGGTAALGCLVKDYFPEPVTVSWNSGALTSGVHTFPAVLQSSGLYSLSSVVTVPSSSLGTQTYICNVNHKPSNTKVDKRVEPKSCDKTHTCPPCPAPEFEGGPSVFLFPPKPKDTLMISRTPEVTCVVVAVSHEDPEVKFNWYVDGVEVHNAKTKPREEQYNSTYRVVSVLTVLHQDWLNGKEYKCKVSNKALPAPIEKTISKAKGQPREPQVYTLPPSREEMTKNQVSLTCLVKGFYPSDIAVEWESNGQPENNYKTTPPVLDSDGSFFLYSRLTVDKSRWQQGNVFSCSVMHEALHNHYTQKSLSLSPGK
VL: B1 VL with A1D, F2I, E3Q, S80P, E104K, V106E
notes: Humanized variant
B6: IgG1-ROR2-A-HC3LC3-FEAR (antibody)
heavy: B5 heavy
VL: B1 VL with S80P, E104K, V106E
notes: Humanized variant
B7: IgG1-ROR2-A-HC3LC1-FEAR (antibody, V domains shown)
VH: B1 VH
VL: B1 VL with L33C
notes: Humanized variant
B8: IgG1-ROR2-A-HC5LC1-FEAR (antibody, V domains shown)
VH: B2 VH with D61N, S62W, V63A
VL: B1 VL with L33C
notes: Humanized variant
B9: IgG1-ROR2-A-HC4LC1-FEAR (antibody, V domains shown)
VH: B2 VH with A23T, A24V, D61N, S62W, V63A
VL: B1 VL with L33C
notes: Humanized variant

Molecular target: T1, his-tagged ROR2 extracellular domain (ROR2-ECD, G&P Biosciences, cat. no. FCL0192) (human, UniProt Q01974 34-403)
T1 construct: Bought protein; also called human ROR2-ECD; recombinant human ROR2-ECD; not shown: his tag
T1 sequence (Q01974 34-403): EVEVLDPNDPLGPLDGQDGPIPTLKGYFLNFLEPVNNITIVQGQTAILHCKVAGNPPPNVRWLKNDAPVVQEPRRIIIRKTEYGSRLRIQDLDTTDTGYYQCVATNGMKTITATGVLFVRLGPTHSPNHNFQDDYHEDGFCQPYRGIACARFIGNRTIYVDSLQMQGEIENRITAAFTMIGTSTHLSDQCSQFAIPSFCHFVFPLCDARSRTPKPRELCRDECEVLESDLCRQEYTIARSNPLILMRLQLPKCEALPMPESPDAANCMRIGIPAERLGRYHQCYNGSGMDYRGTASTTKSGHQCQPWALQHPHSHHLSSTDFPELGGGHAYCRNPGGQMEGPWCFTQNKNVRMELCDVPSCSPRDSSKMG
Assay: BLI (Octet), antibody on anti-human IgG Fc sensor, ROR2-ECD 1.56-100 nM as analyte

Kd	koff	kon	Binder
1.8 nM	0.001 s⁻¹	560000 M⁻¹ s⁻¹	B1
4.7 nM	0.0025 s⁻¹	540000 M⁻¹ s⁻¹	B2
1.6 nM	0.00095 s⁻¹	590000 M⁻¹ s⁻¹	B3
1.5 nM	0.00092 s⁻¹	620000 M⁻¹ s⁻¹	B4
1.5 nM	0.00087 s⁻¹	580000 M⁻¹ s⁻¹	B5
1.8 nM	0.001 s⁻¹	550000 M⁻¹ s⁻¹	B6
1.6 nM	0.00088 s⁻¹	550000 M⁻¹ s⁻¹	B7
1.6 nM	0.00088 s⁻¹	540000 M⁻¹ s⁻¹	B8
2.1 nM	0.0011 s⁻¹	540000 M⁻¹ s⁻¹	B9
